Measured values reported in US20230220589A1.
One block for each binder: values may come before it.

Columns and labels:
[1] = molecular target: M44-modified V NTAA target peptides; assay: encoding assay; P2 N;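 also: fraction of recording tags encoded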
[2] = molecular target: M44-modified S NTAA target peptides; assay: encoding assay; P2 N
[3] = molecular target: M44-modified M NTAA target peptides; assay: encoding assay; P2 N
[4] = molecular target: M44-modified N NTAA target peptides; assay: encoding assay; P2 N
[5] = molecular target: M44-modified F NTAA target peptides (M44-F-P2-peptide); assay: encoding assay; P2 N;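 also: fraction of recording tags encoded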
[6] = molecular target: M44-modified E NTAA target peptides; assay: encoding assay; P2 N;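 also: fraction of recording tags encoded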
[7] = molecular target: M44-modified W NTAA target peptides; assay: encoding assay; P2 N;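 also: fraction of recording tags encoded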
[8] = molecular target: M44-modified L NTAA target peptides (M44-L-P2-peptide); assay: encoding assay; P2 N;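 also: fraction of recording tags encoded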
[9] = molecular target: M44-modified D NTAA target peptides; assay: encoding assay; P2 N;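 also: fraction of recording tags encoded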
[10] = molecular target: M44-modified I NTAA target peptides (M44-I-P2-peptide); assay: encoding assay; P2 N
[11] = molecular target: M44-modified H NTAA target peptides; assay: encoding assay; P2 N
[12] = molecular target: M44-modified Y NTAA target peptides (M44-Y-P2-peptide); assay: encoding assay; P2 N;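 also: fraction of recording tags encoded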
[13] = molecular target: M44-modified Q NTAA target peptides; assay: encoding assay; P2 N
[14] = molecular target: M44-modified V NTAA target peptides; assay: encoding assay; P2 F;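 also: fraction of recording tags encoded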
[15] = molecular target: M44-modified S NTAA target peptides; assay: encoding assay; P2 F
[16] = molecular target: M44-modified P NTAA target peptides; assay: encoding assay; P2 F;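 also: fraction of recording tags encoded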
[17] = molecular target: M44-modified I NTAA target peptides (M44-I-P2-peptide); assay: encoding assay; P2 F
[18] = molecular target: M44-modified H NTAA target peptides; assay: encoding assay; P2 F
[19] = molecular target: M44-modified S NTAA target peptides; assay: encoding assay; P2 I
[20] = molecular target: M44-modified M NTAA target peptides; assay: encoding assay; P2 I
[21] = molecular target: M44-modified E NTAA target peptides; assay: encoding assay; P2 I;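 also: fraction of recording tags encoded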
[22] = molecular target: M44-modified W NTAA target peptides; assay: encoding assay; P2 I;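 also: fraction of recording tags encoded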
[23] = molecular target: M44-modified D NTAA target peptides; assay: encoding assay; P2 I;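 also: fraction of recording tags encoded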
[24] = molecular target: M44-modified A NTAA target peptides (M44-A-P2-peptide); assay: encoding assay; P2 I
[25] = molecular target: M44-modified I NTAA target peptides (M44-I-P2-peptide); assay: encoding assay; P2 I
[26] = molecular target: M44-modified H NTAA target peptides; assay: encoding assay; P2 I
[27] = molecular target: M44-modified Y NTAA target peptides (M44-Y-P2-peptide); assay: encoding assay; P2 I;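 also: fraction of recording tags encoded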
[28] = molecular target: M44-modified G NTAA target peptides (M44-G-P2-peptide); assay: encoding assay; P2 I;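 also: fraction of recording tags encoded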
[29] = molecular target: M44-modified Q NTAA target peptides; assay: encoding assay; P2 I
[30] = molecular target: M44-modified S NTAA target peptides; assay: encoding assay; P2 P
[31] = molecular target: M44-modified M NTAA target peptides; assay: encoding assay; P2 P
[32] = molecular target: M44-modified N NTAA target peptides; assay: encoding assay; P2 P
[33] = molecular target: M44-modified F NTAA target peptides (M44-F-P2-peptide); assay: encoding assay; P2 P;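 also: fraction of recording tags encoded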
[34] = molecular target: M44-modified E NTAA target peptides; assay: encoding assay; P2 P;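 also: fraction of recording tags encoded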
[35] = molecular target: M44-modified L NTAA target peptides (M44-L-P2-peptide); assay: encoding assay; P2 P;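 also: fraction of recording tags encoded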
[36] = molecular target: M44-modified D NTAA target peptides; assay: encoding assay; P2 P;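 also: fraction of recording tags encoded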
[37] = molecular target: M44-modified A NTAA target peptides (M44-A-P2-peptide); assay: encoding assay; P2 P
[38] = molecular target: M44-modified I NTAA target peptides (M44-I-P2-peptide); assay: encoding assay; P2 P
[39] = molecular target: M44-modified H NTAA target peptides; assay: encoding assay; P2 P
[40] = molecular target: M44-modified Y NTAA target peptides (M44-Y-P2-peptide); assay: encoding assay; P2 P;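 also: fraction of recording tags encoded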
[41] = molecular target: M44-modified Q NTAA target peptides; assay: encoding assay; P2 P
[42] = molecular target: M44-modified V NTAA target peptides; assay: encoding assay; P2 M;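 also: fraction of recording tags encoded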
[43] = molecular target: M44-modified M NTAA target peptides; assay: encoding assay; P2 M
[44] = molecular target: M44-modified N NTAA target peptides; assay: encoding assay; P2 M
[45] = molecular target: M44-modified F NTAA target peptides (M44-F-P2-peptide); assay: encoding assay; P2 M;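 also: fraction of recording tags encoded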
[46] = molecular target: M44-modified E NTAA target peptides; assay: encoding assay; P2 M;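 also: fraction of recording tags encoded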
[47] = molecular target: M44-modified L NTAA target peptides (M44-L-P2-peptide); assay: encoding assay; P2 M;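 also: fraction of recording tags encoded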
[48] = molecular target: M44-modified P NTAA target peptides; assay: encoding assay; P2 M;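 also: fraction of recording tags encoded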
[49] = molecular target: M44-modified I NTAA target peptides (M44-I-P2-peptide); assay: encoding assay; P2 M
[50] = molecular target: M44-modified T NTAA target peptides; assay: encoding assay; P2 M
[51] = molecular target: M44-modified Y NTAA target peptides (M44-Y-P2-peptide); assay: encoding assay; P2 M;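 also: fraction of recording tags encoded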

encoding yield [1]: 0.04
encoding yield [2]: 0.03
encoding yield [3]: 0.02
encoding yield [4]: 0.03
encoding yield [5]: 0.01
encoding yield [6]: 0.02
encoding yield [7]: 0.01
encoding yield [8]: 0.14
encoding yield [9]: 0.01
encoding yield [10]: 0.03
encoding yield [11]: 0.03
encoding yield [12]: 0.05
encoding yield [13]: 0.02
encoding yield [14]: 0.03
encoding yield [15]: 0.04
encoding yield [16]: 0.02
encoding yield [17]: 0.08
encoding yield [18]: 0.04
encoding yield [19]: 0.03
encoding yield [20]: 0.03
encoding yield [21]: 0.03
encoding yield [22]: 0.05
encoding yield [23]: 0.03
encoding yield [24]: 0.03
encoding yield [25]: 0.14
encoding yield [26]: 0.03
encoding yield [27]: 0.07
encoding yield [28]: 0.02
encoding yield [29]: 0.01
encoding yield [30]: 0.04
encoding yield [31]: 0.02
encoding yield [32]: 0.02
encoding yield [33]: 0.08
encoding yield [34]: 0.02
encoding yield [35]: 0.07
encoding yield [36]: 0.02
encoding yield [37]: 0.03
encoding yield [38]: 0.06
encoding yield [39]: 0.03
encoding yield [40]: 0.03
encoding yield [41]: 0.02
encoding yield [42]: 0.03
encoding yield [43]: 0.02
encoding yield [44]: 0.02
encoding yield [45]: 0.07
encoding yield [46]: 0.03
encoding yield [47]: 0.19
encoding yield [48]: 0.02
encoding yield [49]: 0.17
encoding yield [50]: 0.05
encoding yield [51]: 0.03
B1: engineered M44-L binder (SEQ ID NO: 31) (designed binder, not shown: small tags and cut ends; large carriers)
chain: QDSTQNLIPAPPLISVPLQPGFWTERFQGRWFLVGFAGNAVQKERQSRLTMQSLILELQEDNSYNITAINVRGQGCRYIISTLVPSSRPGQFTLGNIHSYPQIQSLDVQVADTDYDQFAMVFLQGTSENKQYFEVALAGRTKGLSDELKERFVSFAKSLGLKDNNIVFSVPTDQCIDN

encoding yield [1]: 0.03
encoding yield [2]: 0.01
encoding yield [3]: 0.02
encoding yield [4]: 0.01
encoding yield [5]: 0
encoding yield [6]: 0.01
encoding yield [7]: 0.01
encoding yield [8]: 0.16
encoding yield [9]: 0.01
encoding yield [10]: 0.09
encoding yield [11]: 0.01
encoding yield [12]: 0.01
encoding yield [13]: 0.01
encoding yield [14]: 0.01
encoding yield [15]: 0.01
encoding yield [16]: 0.01
encoding yield [17]: 0.07
encoding yield [18]: 0.02
encoding yield [19]: 0.02
encoding yield [20]: 0.03
encoding yield [21]: 0.01
encoding yield [22]: 0.02
encoding yield [23]: 0.01
encoding yield [24]: 0.01
encoding yield [25]: 0.13
encoding yield [26]: 0.01
encoding yield [27]: 0.03
encoding yield [28]: 0.02
encoding yield [29]: 0.01
encoding yield [30]: 0.02
encoding yield [31]: 0.04
encoding yield [32]: 0.01
encoding yield [33]: 0.09
encoding yield [34]: 0.01
encoding yield [35]: 0.09
encoding yield [36]: 0.01
encoding yield [37]: 0.01
encoding yield [38]: 0.01
encoding yield [39]: 0.01
encoding yield [40]: 0.02
encoding yield [41]: 0.01
encoding yield [42]: 0.01
encoding yield [43]: 0
encoding yield [44]: 0.01
encoding yield [45]: 0.02
encoding yield [46]: 0.01
encoding yield [47]: 0.02
encoding yield [48]: 0.01
encoding yield [49]: 0.1
encoding yield [50]: 0.02
encoding yield [51]: 0.01
B2: engineered M44-L binder (SEQ ID NO: 21) (designed binder, not shown: small tags and cut ends; large carriers)
chain: QVSVQPNFQQDKFLGRWFYAGHASNSSWYREKVAALSMAKLVVAPATDGGLNATETFLRKNQCETITSLLQPAGSLGSYSSRSPHGGSTWSTSVVETDYDQYALLYLQGSKGPGEDFRGAILASRTQTPRAELKEKFTAFSKAQGFTEDTIVFLPQTDKCMTEQ

encoding yield [1]: 0.08
encoding yield [2]: 0.05
encoding yield [3]: 0.02
encoding yield [4]: 0.05
encoding yield [5]: 0
encoding yield [6]: 0.03
encoding yield [7]: 0.01
encoding yield [8]: 0.04
encoding yield [9]: 0.02
encoding yield [10]: 0.03
encoding yield [11]: 0.03
encoding yield [12]: 0.05
encoding yield [13]: 0.04
encoding yield [14]: 0.13
encoding yield [15]: 0.18
encoding yield [16]: 0.02
encoding yield [17]: 0.07
encoding yield [18]: 0.04
encoding yield [19]: 0.1
encoding yield [20]: 0.01
encoding yield [21]: 0.03
encoding yield [22]: 0.02
encoding yield [23]: 0.03
encoding yield [24]: 0.2
encoding yield [25]: 0.08
encoding yield [26]: 0.04
encoding yield [27]: 0.1
encoding yield [28]: 0.1
encoding yield [29]: 0.03
encoding yield [30]: 0.05
encoding yield [31]: 0.02
encoding yield [32]: 0.02
encoding yield [33]: 0.04
encoding yield [34]: 0.03
encoding yield [35]: 0.04
encoding yield [36]: 0.04
encoding yield [37]: 0.03
encoding yield [38]: 0.03
encoding yield [39]: 0.04
encoding yield [40]: 0.02
encoding yield [41]: 0.03
encoding yield [42]: 0.12
encoding yield [43]: 0.02
encoding yield [44]: 0.02
encoding yield [45]: 0.04
encoding yield [46]: 0.03
encoding yield [47]: 0
encoding yield [48]: 0.03
encoding yield [49]: 0.15
encoding yield [50]: 0.21
encoding yield [51]: 0.03
B3: engineered M44-A binder (SEQ ID NO: 42) (designed binder, not shown: small tags and cut ends; large carriers)
chain: QVSVQPNFQQDKFLGRWFVAGLASNSSWDREKVAALSGAKMVVAPATDGGLNVTRTMLRKNQCETYTGLLQPAGSLGSYSWRSPHPGSTGSESVVETDYDQYALVYGQGSKGPGEDLRAAALWSRTQTPRAELKEKFTAFSKAQGFTEDTIVFLPQTDKCMTEQ
